# Laboratory results reported in patent US20240200091A1, “USE OF PROTOPORPHYRINOGEN OXIDASE” (BEIJING DABEINONG BIOTECHNOLOGY CO., LTD., priority 2021, published 2024).
# Assays:
# Assay type in all cases: in vivo
# Details in all cases: 7 DAT, number of plants of 24 per genotype, grades
# [1] = tested on: Arabidopsis thaliana T1 plants; assay: oxyfluorfen tolerance of transgenic Arabidopsis thaliana T1 plants (spray, grade of pesticide damage)
# Excerpt: (§1) The transformed Arabidopsis thaliana T1 plants were initially selected using glufosinate herbicide. The Arabidopsis thaliana T1 plants (PPO1A) into which the PPO1A nucleotide sequence was introduced, the Arabidopsis thaliana T1 plants (PPO2A) into which the PPO2A nucleotide sequence was introduced, the Arabidopsis thaliana T1 plants (PPO3A) into which the PPO3A nucleotide sequence was introduced, the Arabidopsis thaliana T1 plants (PPO4A) into which the PPO4A nucleotide sequence was introduced, the Arabidopsis thaliana T1 plants (PPO5A) into which the PPO5A nucleotide sequence was introduced, the Arabidopsis thaliana T1 plants (PPO6A) into which the PPO6A nucleotide sequence was introduced, the Arabidopsis thaliana T1 plants (PPO7A) into which the PPO7A nucleotide sequence was introduced, the Arabidopsis thaliana T1 plants (PPO8A) into which the PPO8A nucleotide sequence was introduced, the Arabidopsis thaliana T1 plants (PPO9A) into which the PPO9A nucleotide sequence was introduced, the Arabidopsis thaliana T1 plants (PPO10A) into which the […] nucleotide sequence was introduced, the Arabidopsis thaliana T1 plants (PPO11A) into which the PPO11A nucleotide sequence was introduced, the Arabidopsis thaliana T1 plants (PPO12A) into which the PPO12A nucleotide sequence was introduced, the Arabidopsis thaliana T1 plants (PPO13A) into which the PPO13A nucleotide sequence was introduced, the Arabidopsis thaliana T1 plants (PPO14A) into which the PPO14A nucleotide sequence was introduced, the Arabidopsis thaliana T1 plants (PPO-ATA) into which the PPO-ATA nucleotide sequence was introduced, the Arabidopsis thaliana T1 plants (PPO-APA) into which the PPO-APA nucleotide sequence was introduced, the Arabidopsis thaliana T1 plants (control vector) into which the control vector was introduced, and the wild-type Arabidopsis thaliana plants (CK) (with 24 plants being included in each genotype) (18 days after sowing) were sprayed with oxyfluorfen at three concentrations (180 g ai/ha (one-fold field concentration, 1×), 720 g ai/ha (four-fold field concentration, 4×), and 0 g ai/ha (water, 0×)), saflufenacil at three concentrations (25 g ai/ha (one-fold field concentration, 1×), 100 g ai/ha (four-fold field concentration, 4×), and 0 g ai/ha (water, 0×)), flumioxazin at three concentrations (60 g ai/ha (one-fold field concentration, 1×), 240 g ai/ha (four-fold field concentration, 4×), and 0 g ai/ha (water, 0×), and sulfentrazone at three concentrations (450 g ai/ha (one-fold field concentration, 1×), 900 g ai/ha (two-fold field concentration, 2×), and 0 g ai/ha (water, 0×) to determine the tolerance of Arabidopsis thaliana to the herbicides. After 7 days of spraying (7 DAT), the damage level of each plant caused by the herbicide was evaluated according to the average of the damage levels (%) of plants (the average of the damage levels (%) of plants=the injured leaf area/the total leaf area×[…]), i.e., the grade of pesticide damage: grade 0 means that the growth status of plants is essentially consistent with those sprayed with the blank solvent (water); grade 1 means that the average of the damage levels of plants is less than 10%; grade 2 means that the average of the damage levels of plants is greater than […]; and grade 3 means that the average of the damage levels of plants is 100%. The plants having a growth status falling within grades 0 and 1 are classified as highly resistant plants; those having a growth status falling within grade 2 are classified as poorly resistant plants; and those having a growth status falling within grade 3 are classified as non-resistant plants.
# [2] = tested on: Arabidopsis thaliana T1 plants; assay: flumioxazin tolerance of transgenic Arabidopsis thaliana T1 plants (spray, grade of pesticide damage)
# Excerpt: as §1
# [3] = tested on: Arabidopsis thaliana T1 plants; assay: saflufenacil tolerance of transgenic Arabidopsis thaliana T1 plants (spray, grade of pesticide damage)
# Excerpt: as §1
# [4] = tested on: Arabidopsis thaliana T1 plants; assay: sulfentrazone tolerance of transgenic Arabidopsis thaliana T1 plants (spray, grade of pesticide damage)
# Excerpt: as §1
Molecule,The grade of pesticide damage/plant: grade 0 ([1]; oxyfluorfen 180 g ai/ha (1×)),The grade of pesticide damage/plant: grade 1 ([1]; oxyfluorfen 180 g ai/ha (1×)),The grade of pesticide damage/plant: grade 2 ([1]; oxyfluorfen 180 g ai/ha (1×)),The grade of pesticide damage/plant: grade 3 ([1]; oxyfluorfen 180 g ai/ha (1×)),The grade of pesticide damage/plant: grade 0 ([1]; oxyfluorfen 720 g ai/ha (4×)),The grade of pesticide damage/plant: grade 1 ([1]; oxyfluorfen 720 g ai/ha (4×)),The grade of pesticide damage/plant: grade 2 ([1]; oxyfluorfen 720 g ai/ha (4×)),The grade of pesticide damage/plant: grade 3 ([1]; oxyfluorfen 720 g ai/ha (4×)),The grade of pesticide damage/plant: grade 0 ([2]; flumioxazin 60 g ai/ha (1×)),The grade of pesticide damage/plant: grade 1 ([2]; flumioxazin 60 g ai/ha (1×)),The grade of pesticide damage/plant: grade 2 ([2]; flumioxazin 60 g ai/ha (1×)),The grade of pesticide damage/plant: grade 3 ([2]; flumioxazin 60 g ai/ha (1×)),The grade of pesticide damage/plant: grade 0 ([2]; flumioxazin 240 g ai/ha (4×)),The grade of pesticide damage/plant: grade 1 ([2]; flumioxazin 240 g ai/ha (4×)),The grade of pesticide damage/plant: grade 2 ([2]; flumioxazin 240 g ai/ha (4×)),The grade of pesticide damage/plant: grade 3 ([2]; flumioxazin 240 g ai/ha (4×)),The grade of pesticide damage/plant: grade 0 ([3]; saflufenacil 25 g ai/ha (1×)),The grade of pesticide damage/plant: grade 1 ([3]; saflufenacil 25 g ai/ha (1×)),The grade of pesticide damage/plant: grade 2 ([3]; saflufenacil 25 g ai/ha (1×)),The grade of pesticide damage/plant: grade 3 ([3]; saflufenacil 25 g ai/ha (1×)),also measured
"PPO4A: nucleotide sequence encoding microbial protoporphyrinogen oxidase PPO4 (SEQ ID NO:4), Arabidopsis thaliana/soybean common codon usage bias (nucleic acid, PPO4A Nucleotide Sequence) DNA: ATGAAAACCCTGATTCTTTACAGCAGTCATGATGGACAGACCAAGAAAATCTCAGAGTTCCTTACGGCGTTGTTGAATGGCGAAGTTCTAGTTGATGCTCTACGTGAAGATTATGATATTGAAACATTTGACCAAGTTATAATCGGAGCTTCCATAAGGTATGGTCACTTTTCTAAGACTTTAGACAGATTTGTGGTGAGAAACAGGGTACATCTGGAACAAAAACGAGCAGTATTCTTCTCTGTTAACTTAACTGCCCGAAAAGAAGGTAAAGACAATCCTGAAACTAATGTCTATGTCAGAAAGTTTCTCCAGAGAACAAAATGGCAACCAAAACTTGCTGCCGTCTTCGCAGGTGCACTCTTGTACCCGAGATATAAGTGGTTTGATCGTGTGATGATTCGGTTTATCATGAAGATTACTGGGGGAGAGACGGATATAACAAAGGAGATTGAGTACACAGATTGGGAAAAGGTTAGGGAGTTCGCTCAGAGAATCAACCGCCTTGAGAAATGA",24 plant,0 plant,0 plant,0 plant,22 plant,2 plant,0 plant,0 plant,24 plant,0 plant,0 plant,0 plant,22 plant,2 plant,0 plant,0 plant,24 plant,0 plant,0 plant,0 plant,The grade of pesticide damage/plant: grade 0 ([3]; saflufenacil 100 g ai/ha (4×)): 4 plant; The grade of pesticide damage/plant: grade 1 ([3]; saflufenacil 100 g ai/ha (4×)): 20 plant; The grade of pesticide damage/plant: grade 2 ([3]; saflufenacil 100 g ai/ha (4×)): 0 plant; The grade of pesticide damage/plant: grade 3 ([3]; saflufenacil 100 g ai/ha (4×)): 0 plant; The grade of pesticide: grade 0 ([4]; sulfentrazone 450 g ai/ha (1×)): 24; The grade of pesticide: grade 1 ([4]; sulfentrazone 450 g ai/ha (1×)): 0; The grade of pesticide: grade 2 ([4]; sulfentrazone 450 g ai/ha (1×)): 0; The grade of pesticide: grade 3 ([4]; sulfentrazone 450 g ai/ha (1×)): 0; The grade of pesticide: grade 0 ([4]; sulfentrazone 900 g ai/ha (2×)): 18; The grade of pesticide: grade 1 ([4]; sulfentrazone 900 g ai/ha (2×)): 6; The grade of pesticide: grade 2 ([4]; sulfentrazone 900 g ai/ha (2×)): 0; The grade of pesticide: grade 3 ([4]; sulfentrazone 900 g ai/ha (2×)): 0
"PPO3A: nucleotide sequence encoding microbial protoporphyrinogen oxidase PPO3 (SEQ ID NO:3), Arabidopsis thaliana/soybean common codon usage bias (nucleic acid, PPO3A Nucleotide Sequence) DNA: ATGAGTGCCCTGTTGTTGTATTGTTCAACTGATGGTCAAACCAAGAAGATAATGACACAGATAGCTAATGAACTGAGACAACATGGTTATGAATGTGATGTGCGGGATCTTACTTCTGTTCAACAAAATCTCAATCTTTCAGCTTACAACAAAGTTTTGGTAGGAGCTTCCATAAGATATGGATACTTCAATAAAGCACTTGACAAGTTCATCACGAGGCACCTCTCTCAGTTAAACAACATGCCTTCTGCTTTCTTTGGTGTCAATTTGACTGCAAGAAAAGAAGAGAAGAGCACTCCCGAAACAAACAGTTACATCTGCAAGTTTCTAGACAAAACACCATGGAAACCAACCTTAACTGGAGTCTTCGCCGGGGCGCTTTTTTATCCTCGTTACAAATGGATTGATCGAGTGATGATTCAGCTTATCATGAAGATGACTAAAGGAGAAACCGATCCGACAAAAGAGATTGAGTATACAGATTGGAACAAGGTTTCGGAGTTTGCTACGAATTTTGCAAAGATTGGCTGA",24 plant,0 plant,0 plant,0 plant,20 plant,4 plant,0 plant,0 plant,24 plant,0 plant,0 plant,0 plant,24 plant,0 plant,0 plant,0 plant,24 plant,0 plant,0 plant,0 plant,The grade of pesticide damage/plant: grade 0 ([3]; saflufenacil 100 g ai/ha (4×)): 2 plant; The grade of pesticide damage/plant: grade 1 ([3]; saflufenacil 100 g ai/ha (4×)): 22 plant; The grade of pesticide damage/plant: grade 2 ([3]; saflufenacil 100 g ai/ha (4×)): 0 plant; The grade of pesticide damage/plant: grade 3 ([3]; saflufenacil 100 g ai/ha (4×)): 0 plant; The grade of pesticide: grade 0 ([4]; sulfentrazone 450 g ai/ha (1×)): 24; The grade of pesticide: grade 1 ([4]; sulfentrazone 450 g ai/ha (1×)): 0; The grade of pesticide: grade 2 ([4]; sulfentrazone 450 g ai/ha (1×)): 0; The grade of pesticide: grade 3 ([4]; sulfentrazone 450 g ai/ha (1×)): 0; The grade of pesticide: grade 0 ([4]; sulfentrazone 900 g ai/ha (2×)): 20; The grade of pesticide: grade 1 ([4]; sulfentrazone 900 g ai/ha (2×)): 4; The grade of pesticide: grade 2 ([4]; sulfentrazone 900 g ai/ha (2×)): 0; The grade of pesticide: grade 3 ([4]; sulfentrazone 900 g ai/ha (2×)): 0
